# Target: c-Met (human, UniProt P08581 25-1390)
# Test: cell-based or functional assay
# Chain of c-Met (P08581 25-1390): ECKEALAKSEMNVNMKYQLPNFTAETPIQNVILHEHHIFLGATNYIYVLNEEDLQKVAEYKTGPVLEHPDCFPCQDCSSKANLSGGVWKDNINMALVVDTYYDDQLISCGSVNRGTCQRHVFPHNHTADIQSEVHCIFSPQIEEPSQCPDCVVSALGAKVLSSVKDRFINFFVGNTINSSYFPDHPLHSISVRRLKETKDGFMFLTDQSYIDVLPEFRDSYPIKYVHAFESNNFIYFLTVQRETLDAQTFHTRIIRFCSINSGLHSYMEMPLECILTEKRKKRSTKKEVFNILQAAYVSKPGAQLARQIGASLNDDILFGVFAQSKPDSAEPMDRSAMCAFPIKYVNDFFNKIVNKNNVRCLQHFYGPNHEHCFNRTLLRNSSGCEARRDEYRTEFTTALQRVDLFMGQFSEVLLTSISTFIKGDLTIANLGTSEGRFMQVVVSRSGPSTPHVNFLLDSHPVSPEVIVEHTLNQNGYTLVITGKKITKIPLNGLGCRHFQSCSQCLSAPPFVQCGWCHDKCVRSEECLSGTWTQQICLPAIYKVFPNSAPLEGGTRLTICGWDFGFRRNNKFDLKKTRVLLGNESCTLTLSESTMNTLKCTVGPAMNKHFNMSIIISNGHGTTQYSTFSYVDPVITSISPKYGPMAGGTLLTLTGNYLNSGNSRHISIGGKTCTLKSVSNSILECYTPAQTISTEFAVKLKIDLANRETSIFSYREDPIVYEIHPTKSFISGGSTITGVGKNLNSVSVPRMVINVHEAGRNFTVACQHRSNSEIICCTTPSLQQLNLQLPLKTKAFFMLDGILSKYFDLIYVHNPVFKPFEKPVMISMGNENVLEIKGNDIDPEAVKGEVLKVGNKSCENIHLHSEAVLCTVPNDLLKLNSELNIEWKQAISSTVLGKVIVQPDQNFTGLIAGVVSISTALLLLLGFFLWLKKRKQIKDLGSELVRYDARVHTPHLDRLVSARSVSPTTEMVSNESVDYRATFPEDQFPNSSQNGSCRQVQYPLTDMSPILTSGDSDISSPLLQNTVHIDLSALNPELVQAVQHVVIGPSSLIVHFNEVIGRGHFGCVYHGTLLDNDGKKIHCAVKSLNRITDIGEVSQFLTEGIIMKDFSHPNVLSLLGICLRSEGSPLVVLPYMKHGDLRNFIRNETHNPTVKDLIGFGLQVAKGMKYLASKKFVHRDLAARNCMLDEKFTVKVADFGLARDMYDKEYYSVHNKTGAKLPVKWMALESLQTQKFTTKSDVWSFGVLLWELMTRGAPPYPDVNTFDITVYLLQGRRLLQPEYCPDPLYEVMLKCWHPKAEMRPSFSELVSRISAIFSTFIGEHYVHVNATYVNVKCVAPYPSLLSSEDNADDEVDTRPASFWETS
Binder,"Cytotoxicity IC50 (nM), Calu-3 cells","Cytotoxicity IC50 (nM), HCC827 cells","Cytotoxicity IC50 (nM), HEK-293 cells (not different from control)","Cytotoxicity IC50 (nM), MIA PaCa-2 cells (not different from control)","Cytotoxicity IC50 (nM), NCI-H441 cells","Cytotoxicity IC50 (nM), NCI-H441 cells (second row so labelled)","Cytotoxicity IC50 (nM), NCI-H1573 cells (estimated due to curve-fitting issues)","Cytotoxicity IC50 (nM), SNU-5 cells","Cytotoxicity IC50 (nM), Hs 746T cells","Cytotoxicity IC50 (nM), NCI-H820 cells","Cytotoxicity IC50 (nM), NCI-H1573 cells"
"ADC-1 (AbA conjugated to linker drug LD1, structural formula VIII) (antibody, IgG1, V domains shown, TOP1i linker drug LD1 (structural formula V) linked via sulfhydryl groups of reduced cysteine residues; positions not given) VH: QVQLVQSGAEVKKPGASVKVSCKASGYIFTAYTMHWVRQAPGQGLEWMGWIKPNNGLANYAQKFQGRVTMTRDTSISTAYMELSRLRSDDTAVYYCARSEITTEFDYWGQGTLVTVSS VL: DIVMTQSPDSLAVSLGERATINCKSSESVDSYANSFLHWYQQKPGQPPKLLIYRASTRESGVPDRFSGSGSGTDFTLTISSLQAEDVAVYYCQQSKEDPLTFGGGTKVEIKR",20 nM,0.85 nM,> 60 nM,> 60 nM,0.25 nM,0.3 nM,~1 nM,0.19 nM,,,
"ADC-3 (AbA conjugated to linker drug LD3, structural formula X) (antibody, IgG1, V domains shown, TOP1i linker drug LD3 (structural formula VII, maleimide, hydrolyzed) linked via sulfhydryl groups of reduced cysteine residues; positions not given) VH: QVQLVQSGAEVKKPGASVKVSCKASGYIFTAYTMHWVRQAPGQGLEWMGWIKPNNGLANYAQKFQGRVTMTRDTSISTAYMELSRLRSDDTAVYYCARSEITTEFDYWGQGTLVTVSS VL: DIVMTQSPDSLAVSLGERATINCKSSESVDSYANSFLHWYQQKPGQPPKLLIYRASTRESGVPDRFSGSGSGTDFTLTISSLQAEDVAVYYCQQSKEDPLTFGGGTKVEIKR",,0.5 nM,,> 60 nM,,,,,0.05 nM,0.06 nM,1.1 nM
"ADC-2 (AbA conjugated to linker drug LD2, structural formula IX) (antibody, IgG1, V domains shown, TOP1i linker drug LD2 (structural formula VI, maleimide, hydrolyzed) linked via sulfhydryl groups of reduced cysteine residues; positions not given) VH: QVQLVQSGAEVKKPGASVKVSCKASGYIFTAYTMHWVRQAPGQGLEWMGWIKPNNGLANYAQKFQGRVTMTRDTSISTAYMELSRLRSDDTAVYYCARSEITTEFDYWGQGTLVTVSS VL: DIVMTQSPDSLAVSLGERATINCKSSESVDSYANSFLHWYQQKPGQPPKLLIYRASTRESGVPDRFSGSGSGTDFTLTISSLQAEDVAVYYCQQSKEDPLTFGGGTKVEIKR",,0.9 nM,,> 60 nM,,0.25 nM,~1 nM,,,0.16 nM,

# From patent US20260022128A1 (AbbVie / Abbott, published 2026)
